In publication PMC2962499:

Target: fluorescently labeled SpRpn12 (Schizosaccharomyces pombe) (UniProt P50524)
Assay: fluorescence polarisation

Kd: 18 µM
B1: SpRpn10 residues 196-243 (UIM-containing C-terminal sequence) (domain or fragment)
chain: NQFEYGVDPNLDVELALALELSMAEERARQEVAAQKSSEETEDKKMQE
